Blank lines part the entries; values can stand above or below the molecule they belong to.
What was measured:
Assay in all cases: cell-based or functional assay
SALPR fused to PK2 = SALPR fused to PK2 (UniProt Q9NSD7)
PTHR2 fused to PK2 = PTHR2 fused to PK2 (UniProt P49190)
CCR6 fused to PK1 = biological target: T1, CCR6 fused to PK1 (UniProt P51684)
T1 sequence (looked up): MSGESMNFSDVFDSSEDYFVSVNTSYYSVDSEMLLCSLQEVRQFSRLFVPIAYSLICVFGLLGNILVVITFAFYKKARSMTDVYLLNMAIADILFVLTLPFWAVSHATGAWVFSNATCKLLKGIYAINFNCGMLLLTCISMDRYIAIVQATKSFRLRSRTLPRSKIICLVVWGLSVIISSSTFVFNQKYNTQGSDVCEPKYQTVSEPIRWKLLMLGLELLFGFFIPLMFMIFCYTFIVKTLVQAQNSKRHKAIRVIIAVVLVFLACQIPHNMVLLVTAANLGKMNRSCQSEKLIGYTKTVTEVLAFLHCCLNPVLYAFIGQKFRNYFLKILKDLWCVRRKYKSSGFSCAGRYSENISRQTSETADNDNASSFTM

CCR6 fused to PK2 = biological target: T2, CCR6 fused to PK2 (UniProt P51684)
T2 sequence (P51684 whole entry, species assumed, looked up): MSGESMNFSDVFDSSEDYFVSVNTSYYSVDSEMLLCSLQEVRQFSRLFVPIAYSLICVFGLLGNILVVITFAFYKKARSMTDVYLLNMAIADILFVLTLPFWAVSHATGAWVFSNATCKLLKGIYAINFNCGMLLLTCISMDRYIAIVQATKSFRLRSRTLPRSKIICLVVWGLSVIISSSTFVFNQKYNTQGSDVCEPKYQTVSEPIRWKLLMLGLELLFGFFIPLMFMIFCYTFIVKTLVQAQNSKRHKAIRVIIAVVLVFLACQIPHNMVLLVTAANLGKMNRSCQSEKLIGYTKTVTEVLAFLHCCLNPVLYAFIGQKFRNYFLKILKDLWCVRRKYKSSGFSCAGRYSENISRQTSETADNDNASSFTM

SSTR1 fused to PK1 = SSTR1 fused to PK1 (UniProt P30872)
MC3R fused to PK2 = MC3R fused to PK2 (UniProt P41968)
CCR4 fused to PK1 = biological target: T3, CCR4 fused to PK1 (UniProt P51679)
T3 sequence (looked up): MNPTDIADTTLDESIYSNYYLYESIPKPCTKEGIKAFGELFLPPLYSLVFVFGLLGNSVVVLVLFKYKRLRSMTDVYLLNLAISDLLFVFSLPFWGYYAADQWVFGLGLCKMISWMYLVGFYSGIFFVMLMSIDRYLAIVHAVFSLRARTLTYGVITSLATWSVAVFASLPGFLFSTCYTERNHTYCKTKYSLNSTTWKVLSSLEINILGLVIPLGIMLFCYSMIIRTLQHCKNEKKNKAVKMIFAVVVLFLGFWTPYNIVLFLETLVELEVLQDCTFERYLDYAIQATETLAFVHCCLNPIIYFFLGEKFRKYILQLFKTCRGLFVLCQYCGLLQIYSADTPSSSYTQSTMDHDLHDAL

CCR4 fused to PK2 = biological target: T4, CCR4 fused to PK2 (UniProt P51679)
T4 sequence (P51679 whole entry, species assumed, looked up): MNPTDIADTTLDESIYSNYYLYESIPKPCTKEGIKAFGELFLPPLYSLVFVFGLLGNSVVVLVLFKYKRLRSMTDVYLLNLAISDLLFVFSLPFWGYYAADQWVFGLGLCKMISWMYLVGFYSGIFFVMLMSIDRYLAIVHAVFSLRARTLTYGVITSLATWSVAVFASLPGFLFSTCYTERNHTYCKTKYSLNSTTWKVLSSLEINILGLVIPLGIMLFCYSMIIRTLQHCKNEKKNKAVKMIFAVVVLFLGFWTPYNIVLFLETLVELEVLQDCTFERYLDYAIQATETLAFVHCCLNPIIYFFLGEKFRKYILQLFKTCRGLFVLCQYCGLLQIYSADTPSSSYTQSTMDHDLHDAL

SSTR1 fused to PK2 = SSTR1 fused to PK2 (UniProt P30872)
SSTR4 fused to PK1 = SSTR4 fused to PK1 (UniProt P31391)
SSTR4 fused to PK2 = SSTR4 fused to PK2 (UniProt P31391)
CRHR2 fused to PK1 = biological target: T5, CRHR2 fused to PK1 (UniProt Q13324)
T5 sequence (looked up): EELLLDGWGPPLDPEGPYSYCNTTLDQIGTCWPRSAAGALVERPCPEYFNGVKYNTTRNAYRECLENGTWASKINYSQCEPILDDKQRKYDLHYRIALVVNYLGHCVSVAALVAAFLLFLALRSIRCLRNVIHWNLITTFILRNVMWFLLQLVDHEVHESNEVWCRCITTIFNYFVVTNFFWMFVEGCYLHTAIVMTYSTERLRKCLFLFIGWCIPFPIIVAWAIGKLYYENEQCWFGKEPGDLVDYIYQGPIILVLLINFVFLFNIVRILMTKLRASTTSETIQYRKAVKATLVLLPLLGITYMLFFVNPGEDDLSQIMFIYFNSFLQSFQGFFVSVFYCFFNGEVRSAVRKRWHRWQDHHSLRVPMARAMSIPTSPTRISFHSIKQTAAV

CRHR2 fused to PK2 = biological target: T6, CRHR2 fused to PK2 (UniProt Q13324)
T6 sequence (Q13324 whole entry, species assumed, looked up): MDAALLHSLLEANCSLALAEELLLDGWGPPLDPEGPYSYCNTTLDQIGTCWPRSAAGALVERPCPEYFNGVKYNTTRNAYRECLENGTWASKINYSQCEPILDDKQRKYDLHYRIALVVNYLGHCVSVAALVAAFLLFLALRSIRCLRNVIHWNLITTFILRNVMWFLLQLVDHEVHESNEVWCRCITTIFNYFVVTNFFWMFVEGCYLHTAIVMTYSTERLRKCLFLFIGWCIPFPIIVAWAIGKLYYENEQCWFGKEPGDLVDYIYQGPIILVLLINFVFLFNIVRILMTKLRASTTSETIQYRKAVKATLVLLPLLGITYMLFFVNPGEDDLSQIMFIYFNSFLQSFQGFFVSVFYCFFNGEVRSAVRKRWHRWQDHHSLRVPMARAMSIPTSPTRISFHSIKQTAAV

SSTR1 fused to PK1, sequence (P30872 whole entry, the tested form may be a part): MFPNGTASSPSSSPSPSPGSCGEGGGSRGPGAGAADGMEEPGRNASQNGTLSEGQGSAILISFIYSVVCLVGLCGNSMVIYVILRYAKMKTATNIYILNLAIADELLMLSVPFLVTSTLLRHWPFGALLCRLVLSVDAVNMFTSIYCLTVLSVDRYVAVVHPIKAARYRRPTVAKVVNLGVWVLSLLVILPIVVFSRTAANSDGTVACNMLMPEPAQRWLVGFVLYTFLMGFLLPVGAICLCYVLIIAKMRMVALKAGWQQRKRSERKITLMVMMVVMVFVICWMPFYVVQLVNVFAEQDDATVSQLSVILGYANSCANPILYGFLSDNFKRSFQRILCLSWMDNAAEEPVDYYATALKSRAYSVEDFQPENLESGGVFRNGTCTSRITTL
PTHR2 fused to PK2, sequence (P49190 whole entry, the tested form may be a part): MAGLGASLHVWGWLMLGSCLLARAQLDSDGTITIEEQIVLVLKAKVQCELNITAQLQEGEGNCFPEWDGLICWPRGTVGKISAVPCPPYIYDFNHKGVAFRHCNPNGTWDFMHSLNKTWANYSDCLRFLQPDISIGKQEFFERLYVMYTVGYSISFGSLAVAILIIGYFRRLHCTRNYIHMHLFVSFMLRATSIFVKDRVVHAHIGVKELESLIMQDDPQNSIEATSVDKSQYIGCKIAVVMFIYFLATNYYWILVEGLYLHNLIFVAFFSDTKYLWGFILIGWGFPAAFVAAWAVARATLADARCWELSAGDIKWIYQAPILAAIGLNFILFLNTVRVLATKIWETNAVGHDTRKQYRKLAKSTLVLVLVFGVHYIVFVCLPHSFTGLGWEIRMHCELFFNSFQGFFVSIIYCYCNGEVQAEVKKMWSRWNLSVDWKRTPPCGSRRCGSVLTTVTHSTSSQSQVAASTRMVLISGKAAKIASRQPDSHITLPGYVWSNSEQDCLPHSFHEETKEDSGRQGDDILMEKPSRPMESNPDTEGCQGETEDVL
SALPR fused to PK2, sequence (Q9NSD7 whole entry, the tested form may be a part): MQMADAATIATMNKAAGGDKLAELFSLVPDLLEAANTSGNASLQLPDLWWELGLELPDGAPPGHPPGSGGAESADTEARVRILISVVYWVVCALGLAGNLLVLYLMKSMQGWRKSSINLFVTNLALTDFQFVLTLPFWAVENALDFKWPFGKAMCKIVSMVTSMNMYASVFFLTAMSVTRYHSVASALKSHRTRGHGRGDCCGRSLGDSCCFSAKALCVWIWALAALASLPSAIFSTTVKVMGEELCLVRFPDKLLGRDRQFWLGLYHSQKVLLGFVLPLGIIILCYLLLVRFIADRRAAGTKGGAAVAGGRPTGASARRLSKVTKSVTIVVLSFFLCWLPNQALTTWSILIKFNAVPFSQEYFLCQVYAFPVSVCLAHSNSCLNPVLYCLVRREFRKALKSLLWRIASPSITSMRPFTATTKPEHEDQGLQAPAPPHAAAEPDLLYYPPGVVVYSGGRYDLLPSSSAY
SSTR1 fused to PK2, sequence (P30872 whole entry, the tested form may be a part): as the sequence (P30872 whole entry, the tested form may be a part) above
SSTR4 fused to PK2, sequence (P31391 whole entry, the tested form may be a part): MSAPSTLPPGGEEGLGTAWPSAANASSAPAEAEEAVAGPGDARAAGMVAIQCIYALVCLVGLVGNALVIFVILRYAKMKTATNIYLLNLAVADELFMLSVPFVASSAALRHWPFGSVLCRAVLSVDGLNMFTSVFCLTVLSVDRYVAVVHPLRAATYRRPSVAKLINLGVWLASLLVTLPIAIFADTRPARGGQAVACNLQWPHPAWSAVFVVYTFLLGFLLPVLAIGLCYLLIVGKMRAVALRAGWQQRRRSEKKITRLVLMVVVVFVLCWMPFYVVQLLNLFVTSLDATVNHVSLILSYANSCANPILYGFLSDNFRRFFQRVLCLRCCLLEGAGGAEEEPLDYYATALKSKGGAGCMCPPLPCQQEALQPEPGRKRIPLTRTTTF
SSTR4 fused to PK1, sequence (P31391 whole entry, the tested form may be a part): as above
MC3R fused to PK2, sequence (P41968 whole entry, the tested form may be a part): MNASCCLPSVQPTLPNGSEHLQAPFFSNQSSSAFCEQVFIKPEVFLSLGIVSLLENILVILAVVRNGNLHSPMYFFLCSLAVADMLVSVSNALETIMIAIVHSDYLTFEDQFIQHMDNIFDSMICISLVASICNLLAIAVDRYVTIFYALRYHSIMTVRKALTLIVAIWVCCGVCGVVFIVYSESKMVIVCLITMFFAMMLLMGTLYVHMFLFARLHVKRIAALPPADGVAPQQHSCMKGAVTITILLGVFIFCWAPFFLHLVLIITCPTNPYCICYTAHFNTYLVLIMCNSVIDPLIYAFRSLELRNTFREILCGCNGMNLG

Molecule: Relaxin-3 (from UniProt Q8WXF3 26-142) (ligand)
Fold induct. (arrestin recruitment, beta-galactosidase EFC, saturating ligand) (SALPR fused to PK2): 1.8 fold

Molecule: PTH (1-34) (from UniProt P01270 32-65) (peptide)
Fold induct. (arrestin recruitment, beta-galactosidase EFC, saturating ligand) (PTHR2 fused to PK2): 72.9 fold

B1: CCL22 (ligand, UniProt O00626 25-93, looked up)
chain: GPYGANMEDSVCCRDYVRYRLPLRVVKHFYWTSDSCPRPGVVLLTFRDKEICADPRVPWVKMILNKLSQ
Fold induct. (arrestin recruitment, beta-galactosidase EFC, saturating ligand) (CCR4 fused to PK1): 18.9 fold
Fold induct. (arrestin recruitment, beta-galactosidase EFC, saturating ligand) (CCR4 fused to PK2): 3 fold

Molecule: SANSNPAMAPRERKAGCKNFFWKTFTSC (peptide, UniProt P61278 89-116, looked up) [Somatostatin-28]
Fold induct. (arrestin recruitment, beta-galactosidase EFC, saturating ligand) (SSTR1 fused to PK1): 1.2 fold
Fold induct. (arrestin recruitment, beta-galactosidase EFC, saturating ligand) (SSTR1 fused to PK2): 1.3 fold
Fold induct. (arrestin recruitment, beta-galactosidase EFC, saturating ligand) (SSTR4 fused to PK1): 1.3 fold
Fold induct. (arrestin recruitment, beta-galactosidase EFC, saturating ligand) (SSTR4 fused to PK2): 1.6 fold

Molecule: QGPPISIDLSLELLRKMIEIEKQEKEKQQAANNRLLLDTI (peptide, UniProt P01144 1-40, looked up) [Sauvagine]
Fold induct. (arrestin recruitment, beta-galactosidase EFC, saturating ligand) (CRHR2 fused to PK1): 13.1 fold
Fold induct. (arrestin recruitment, beta-galactosidase EFC, saturating ligand) (CRHR2 fused to PK2): 17.4 fold

Other lines, results leading:

Fold induct. (arrestin recruitment, beta-galactosidase EFC, saturating ligand) (CCR6 fused to PK1): 1.4 fold
Fold induct. (arrestin recruitment, beta-galactosidase EFC, saturating ligand) (CCR6 fused to PK2): 6.5 fold
Molecule: CCL20 (from UniProt P78556 27-96) (ligand)

Fold induct. (arrestin recruitment, beta-galactosidase EFC, saturating ligand) (SSTR1 fused to PK1): 1 fold
Molecule: TYR-SRIF14 (peptide)

Fold induct. (arrestin recruitment, beta-galactosidase EFC, saturating ligand) (MC3R fused to PK2): 3.2 fold
Molecule: aMSH (from UniProt P01189 138-150) (peptide)

Fold induct. (arrestin recruitment, beta-galactosidase EFC, saturating ligand) (PTHR2 fused to PK2): 2.8 fold
Molecule: SLALADDAAFRERARLLAALERRHWLNSYMHKLLVLDAP (peptide, UniProt Q96A98 62-100, looked up) [TIP39]

Reference: US20090098588A1
